# Measurements: publication PMC6695210, “Bipartite interface of the measles virus phosphoprotein X domain with the large polymerase protein regulates viral polymerase dynamics” (PLoS Pathogens, 2019)
# B1: MeV phosphoprotein (P), wild type [measles virus (strain IC-B)] / MeV L_(1708), C-terminally truncated large polymerase protein lacking the methyltransferase domain [measles virus (strain IC-B)] (parent complex)
# chain 1: MAEEQARHVKNGLECIRALKAEPIGSLAVEEAMAAWSEISDNPGQDRATCKEEEAGSSGLSKPCLSAIGSTEGGAPRIRGQGSGESDDDAETLGIPSRNLQASSTGLQCYHVYDHSGEAVKGIQDADSIMVQSGLDGDSTLSGGDDESENSDVDIGEPDTEGYAITDRGSAPISMGFRASDVETAEGGEIHELLKLQSRGNNFPKLGKTLNVPPPPNPSRASTSETPIKKGTDARLASFGTEIASLLTGGATQCARKSPSEPSGPGAPAGNVPECVSNAALIQEWTPESGTTISPRSQNNEEGGDYYDDELFSDVQDIKTALAKIHEDNQKIISKLESLLLLKGEVESIKKQINRQNISISTLEGHLSSIMIAIPGLGKDPNDPTADVELNPDLKPIIGRDSGRALAEVLKKPVASRQLQGMTNGRTSSRGQLLKEFQLKPIGKKVSSAVGFVPDTGPASRSVIRSIIKSSRLEEDRKRYLMTLLDDIKGANDLAKFHQMLMKIIMK
# chain 2: MDSLSVNQILYPEVHLDSPIVTNKIVAILEYARVPHAYSLEDPTLCQNIKHRLKNGFSNQMIINNVEVGNVIKSKLRSYPAHSHIPYPNCNQDLFNIEDKESTRKIRELLKKGNSLYSKVSDKVFQCLRDTNSRLGLGSELREDIKEKIINLGVYMHSSQWFEPFLFWFTVKTEMRSVIKSQTHTCHRRRHTPVFFTGSSVELLISRDLVAIISKESQHVYYLTFELVLMYCDVIEGRLMTETAMTIDARYAELLGRVRYMWKLIDGFFPALGNPTYQIVAMLEPLSLAYLQLRDITVELRGAFLNHCFTEIHDVLDQNGFSDEGTYHELIEALDYIFITDDIHLTGEIFSFFRSFGHPRLEAVTAAENVRKYMNQPKVIVYETLMKGHAIFCGIIINGYRDRHGGSWPPLTLPLHAADTIRNAQASGEGLTHEQCVDNWKSFAGVRFGCFMPLSLDSDLTMYLKDKALAALQREWDSVYPKEFLRYDPPKGTGSRRLVDVFLNDSSFDPYDMIMYVVSGAYLHDPEFNLSYSLKEKEIKETGRLFAKMTYKMRACQVIAENLISNGIGKYFKDNGMAKDEHDLTKALHTLAVSGVPKDLKESHRGGPVLKTYSRSPVHTSTRNVKAEKGFVGFPHVIRQNQDTDHPENIETYETVSAFITTDLKKYCLNWRYETISLFAQRLNEIYGLPSFFQWLHKRLETSVLYVSDPHCPPDLDAHVPLCKVPNDQIFIKYPMGGIEGYCQKLWTISTIPYLYLAAYESGVRIASLVQGDNQTIAVTKRVPSTWPYNLKKREAARVTRDYFVILRQRLHDIGHHLKANETIVSSHFFVYSKGIYYDGLLVSQSLKSIARCVFWSETIVDETRAACSNIATTMAKSIERGYDRYLAYSLNVLKVIQQILISLGFTINSTMTRDVVIPLLTNNDLLIRMALLPAPIGGMNYLNMSRLFVRNIGDPVTSSIADLKRMILASLMPEETLHQVMTQQPGDSSFLDWASDPYSANLVCVQSITRLLKNITARFVLIHSPNPMLKGLFHDDSKEEDERLAAFLMDRHIIVPRAAHEILDHSVTGARESIAGMLDTTKGLIRASMRKGGLTSRVITRLSNYDYEQFRAGMVLLTGRKRNVLIDKESCSVQLARALRSHMWARLARGRPIYGLEVPDVLESMRGHLIRRHETCVICECGSVNYGWFFVPSGCQLDDIDKETSSLRVPYIGSTTDERTDMKLAFVRAPSRSLRSAVRIATVYSWAYGDDDSSWNEAWLLARQRANVSLEELRVITPISTSTNLAHRLRDRSTQVKYSGTSLVRVARYTTISNDNLSFVISDKKVDTNFIYQQGMLLGLGVLETLFRLEKDTGSSNTVLHLHVETDCCVIPMIDHPRIPSSRKLELRAELCTNPLIYDNAPLIDRDATRLYTQSHRRHLVEFVTWSTPQLYHILAKSTALSMIDLVTKFEKDHMNEISALIGDDDINSFITEFLLIEPRLFTIYLGQCAAINWAFDVHYHRPSGKYQMGELLSSFLSRMSKGVFKVLVNALSHPKIYKKFWHCGIIEPIHGPSLDAQNLHTTVCNMVYTCYMTYLDLLLNEELEEFTFLLCESDEDVVPDRFDNIQAKHLCVLADLYCQPGTCPPIRGLRPVEKCAVLTDHIKAEARLSPAGSSWNINPIIVDHYSCSLTYLRRGSIKQIRLRVDPGFIFDALAEVNVSQPKVGSN
# Variants of: B1
# Assay: co-immunoprecipitation (IP anti-HA of P, immunoblot of L anti-FLAG, densitometry); lysates of transiently transfected cells, lysed 24 hours after transfection; IP at 4°C; parent: 100; read off a plot
row,Variant,percent of parent
1,chain 1 T483R,~85 % of wild type P
2,chain 1 F497D,~120 % of wild type P
3,chain 1 D486R,~130 % of wild type P
4,chain 1 K469E,~75 % of wild type P
5,chain 1 S462R,~75 % of wild type P
6,chain 1 R479E,~82 % of wild type P
7,chain 1 R465E,~62 % of wild type P
8,chain 1 D493K,~150 % of wild type P

# Variants of: B1
# Assay: as above
# Remark: another data set of the same source
row,Variant,percent of parent
1,chain 1 S361A,~85 % of wild type P
2,"chain 1 L363A, chain 1 E364A",~20 % of wild type P
3,chain 1 L363A,~38 % of wild type P
4,chain 1 E364A,~44 % of wild type P
5,"chain 1 S361A, chain 1 T362A",~95 % of wild type P

# Variants of: B1
# Assay: as above
# Remark: another data set of the same source
row,Variant,percent of parent
1,"chain 1 D401A, chain 1 S402A, chain 1 G403A, chain 1 R404A",~19 % of wild type P
2,"chain 1 S447A, chain 1 S448A, chain 1 V450A",~92 % of wild type P
3,"chain 1 R404A, chain 1 L406A",~14 % of wild type P
4,"chain 1 G431A, chain 1 Q432A, chain 1 L433A, chain 1 L434A",~85 % of wild type P
5,"chain 1 E408A, chain 1 V409A, chain 1 L410A",~30 % of wild type P
6,"chain 1 L377A, chain 1 G378A, chain 1 K379A, chain 1 D380A",~78 % of wild type P
7,"chain 1 P396A, chain 1 I397A, chain 1 I398A, chain 1 G399A",~22 % of wild type P
8,"chain 1 K440A, chain 1 P441A, chain 1 I442A, chain 1 G443A",~75 % of wild type P
9,"chain 1 D383A, chain 1 P384A, chain 1 T385A",~55 % of wild type P

# Variants of: B1
# Assay: as above
# Remark: another data set of the same source
row,Variant,percent of parent
1,chain 1 A495R,~78 % of wild type P
2,chain 1 H498E,~18 % of wild type P
3,chain 1 S466R,~20 % of wild type P
4,chain 1 V463R,~5 % of wild type P
5,chain 1 A491R,~120 % of wild type P
6,chain 1 M502R,~120 % of wild type P
7,chain 1 S470R,~65 % of wild type P

# Variants of: B1
# Assay: as above
# Remark: another data set of the same source
row,Variant,percent of parent
1,"chain 1 S361A, chain 1 T362A, chain 1 L363A, chain 1 E364A",~3 % of wild type P
2,"chain 1 I374A, chain 1 P375A, chain 1 G376A, chain 1 L377A",~9 % of wild type P
3,"chain 1 G365A, chain 1 H366A, chain 1 L367A, chain 1 S368A",~12 % of wild type P
4,"chain 1 S369A, chain 1 I370A, chain 1 M371A, chain 1 I372A",~14 % of wild type P
